Laboratory results reported in PMC10658926, “Plasmodium vivax merozoite-specific thrombospondin-related anonymous protein (PvMTRAP) interacts with human CD36, suggesting a novel ligand–receptor interaction for reticulocyte invasion” (Parasites & Vectors, 2023).

Experiments:
[1] = target: human CD36 (cluster of differentiation 36), ectodomain, Fc-fusion (human); assay: BLI; Octet RED96; Fc-tagged receptor immobilised on protein G (ProG) biosensor, twofold serial dilution of His-tagged parasite ligand in HBS; KD from the response in equilibrium against concentration
[2] = target: T1, Plasmodium vivax Duffy binding protein region II (PvDBP-RII), residues 194 to 521, His-tagged (Plasmodium vivax, UniProt P22290 194-521, biotin (biotinylated with co-transfected secreted E. coli BirA and D-biotin, for the ELISA bait)); assay: as above; conditions: both partners purified
T1 construct: source: HEK293E, transfected, culture supernatant, purified (Ni-NTA agarose); not shown: His, C-terminal, kept

Molecule	Kd [1]	Kd [2]
Plasmodium vivax merozoite-specific thrombospondin-related anonymous protein (PvMTRAP), full-length ectodomain, His-tagged (domain or fragment)	37 nM	–
Duffy antigen receptor for chemokines (DARC, CD234), residues 1 to 63, Fc-fusion (Fc fusion, human, UniProt Q16570 1-63, looked up, Duffy antigen receptor for chemokines (CD234), human, residues 1 to 63; also called human DARC; source: HEK293E, transfected, culture supernatant, purified (HiTrap Protein G HP); not shown: Fc, C-terminal, kept) MGNCLHRAELSPSTENSSQLDFEDVWNSSYGVNDSFPDGDYGANLEAAAPCHSCNLLDDSALP	–	7.7 nM
